Results taken from patent US20240327502A1 (Merck Sharp & Dohme, published 2024).
Where two headings read alike, the source gives them in different places.

Columns and labels:
[1] = molecular target: T1, F protein of hMPV A virus (human metapneumovirus subtype A); test: cell-based or functional assay
[2] = molecular target: T2, F protein of hMPV A MARM virus K138Q (human metapneumovirus subtype A); test: cell-based or functional assay
[3] = molecular target: T3, F protein of hMPV A MARM virus G264R/Q434H (human metapneumovirus subtype A); test: cell-based or functional assay
[4] = molecular target: T4, F protein of hMPV A MARM virus V231A/G264R (human metapneumovirus subtype A); test: cell-based or functional assay
[5] = molecular target: T2, F protein of hMPV A MARM virus K138Q; test: cell-based or functional assay; remark: listed apart in the source
[6] = molecular target: T3, F protein of hMPV A MARM virus …; test: cell-based or functional assay; remark: listed apart in the source
[7] = molecular target: T4, F protein of hMPV A MARM virus …; test: cell-based or functional assay; remark: listed apart in the source
[8] = molecular target: T1, F protein of hMPV A virus; test: cell-based or functional assay; remark: listed apart in the source
[9] = molecular target: T5, F protein of hMPV B virus (human metapneumovirus subtype B); test: cell-based or functional assay
[10] = molecular target: T1, F protein of hMPV A virus; test: cell-based or functional assay; remark: listed apart in the source
[11] = molecular target: T5, F protein of hMPV B virus; test: cell-based or functional assay; remark: listed apart in the source
[12] = molecular target: F protein of RSV B/Washington virus (respiratory syncytial virus B, …); test: cell-based or functional assay
[13] = molecular target: T6, unprocessed hMPV PreF trimeric antigen (human metapneumovirus strain B2); test: ELISA; Ni-NTA plate coated with Expi293 supernatant containing the His-tagged antigen; antibody titrated; OD450
T6 construct: also called unprocessed hMPV WT PreF trimer; hMPV WT trimer

N135T G139N Y233N = molecular target: T7, N135T G139N Y233N; test: as above
T7 construct: also called unprocessed hMPV PreF N135T/G139N/Y233N

T143K = molecular target: T8, T143K; test: as above
T8 construct: also called unprocessed hMPV PreF T143K

D414K = molecular target: T9, D414K; test: as above
T9 construct: also called unprocessed hMPV PreF D414K

[14] = molecular target: T6, unprocessed hMPV PreF trimeric antigen; test: as above; remark: listed apart in the source

B1: M4B06 (antibody, V domains shown)
VH: EVQLLESGGGFVQPGGSLRLSCVVTGFTFSNYAMCWVRQAPGKGPEWVSGIGGSVGTTYYADSVKGRFTISRDNSKNTLYLQMSGLRAEDTARYYCAKVPSFFVFEDGFDMWGQGTVVTVSS
VL: QSVLTQPPSASGNPGQRVTISCYGSGSNIGNNYVHWFRQLPGTAPRLLIYNTDILVPGVPDRFSGSESGTSASLAISGLQSGDEADYFCAAWDDTLNGYVFGPGTTVTVL
- IC50, hMPV plaque reduction neutralization [1]: 0.0103 µg/mL
- IC50, hMPV plaque reduction neutralization [2]: 0.49 µg/mL
- IC50, hMPV plaque reduction neutralization [3]: 0.7 µg/mL
- IC50, hMPV plaque reduction neutralization [4]: 0.524 µg/mL
- fold reduction of neutralization potency against the MARM virus [5]: 49 fold
- fold reduction of neutralization potency against the MARM virus [6]: 70 fold
- fold reduction of neutralization potency against the MARM virus [7]: 52 fold
- PRNT IC50 [8]: 0.0035 µg/mL
- PRNT IC50 [9]: 0.0022 µg/mL

B2: M4B06 Fab (Fab, V domains shown)
VH: EVQLLESGGGFVQPGGSLRLSCVVTGFTFSNYAMCWVRQAPGKGPEWVSGIGGSVGTTYYADSVKGRFTISRDNSKNTLYLQMSGLRAEDTARYYCAKVPSFFVFEDGFDMWGQGTVVTVSS
VL: QSVLTQPPSASGNPGQRVTISCYGSGSNIGNNYVHWFRQLPGTAPRLLIYNTDILVPGVPDRFSGSESGTSASLAISGLQSGDEADYFCAAWDDTLNGYVFGPGTTVTVL
- IC50, hMPV plaque reduction neutralization [1]: 0.076 µg/mL

B3: M1D2 (antibody, V domains shown)
VH: QVQLQESGPGLVKPSGTLSLTCTVSGGSVNSDHWWTWVRQSPETGLEWIGELNHIGTFNYNPSFKSRATISIDTSKNQFSLTLTSVAAADTAVYYCARRPPPLPEYFYYYFMDVWGNGTTVTVSS
VL: DIQMTQSPSSLSASVGDRVTITCRTSQSIRGHINWYQQKPGKGPKLLIYGASSLQSGVPSRFSGSGSGTDFTLTISSLQAEDFATYYCQQSYSNPYSFGRGTKLEIKR
- PRNT IC50 [8]: 0.0117 µg/mL
- PRNT IC50 [9]: 0.0124 µg/mL

B4: M8C10 (antibody, V domains shown)
VH: QVQLVESGGGVVQPGRSLRLSCAASGFTFTTYTMHWVRQAPGKGLEWVALISSDGNNKYYADSVKGRFTISRDNSKNTLYLQMSSLRAEDTAVYYCARGYYSGGDAFDVWGQGTMVTVSS
VL: DIQMTQSPSTLSASVGDRVTITCRASQTITIWLAWYQQKPGKAPKLLIYDAVSLESGVPSRFRGSGSGTDFTLTISSLQPDDFATYYCQQYNNYPYTFGQGTKLEIKR
- virus neutralization IC50, MPV strain A1 [10]: 371 nM
- virus neutralization IC50, MPV strain B2 [11]: 660 nM
- PRNT IC50 [8]: 0.37 µg/mL
- PRNT IC50 [9]: 0.66 µg/mL

B5: M3D04 (antibody, V domains shown)
VH: EVQLVESGGDLVEPGGSLRLSCAASGFTFESAWMSWVRQAPGKGLEWVGRIKSKLDHGTTDYAAPVKGRFTLSRDDSKNTLFLQMNNLKTEDTGVYYCATDRSDVRFLEWLGNYQFGMDVWGQGTTVAVSS
VL: EIVLTQSPGTLSLSPGERATLSCRASHSVSSSYLAWYQQKPGQAPRLLIFGASSRATGIPDRFSGSGSGTDFTLTISRLEPEDFAVYYCQQYLTSPPGWTFGQGTKVEIK
- PRNT IC50 [8]: 0.2 µg/mL
- PRNT IC50 [9]: 0.327 µg/mL

B6: M1C7 (antibody, V domains shown)
VH: QVQLVESGGGLVQPGRSLRLSCAASGFTFSSYAMHWVRQAPGKGLEWVAIITYDGSGKYYADSLEGRITISRDDPKSMLYLHMRSLTAEDTAVYYCVKSGSFSSAFWLEDWGQGTLVTVSS
VL: EIVLTQSPATLSLSPGERATLSCRASQSISNFVAWYQQKPGQAPRLLIYDASNGATGTPARFSGSGSGTDFTLTISSLEPEDFAVYYCQQRSTWTFGQGTKVEIKR
- PRNT IC50 [8]: 0.0083 µg/mL
- PRNT IC50 [12]: 1.1 µg/mL
- PRNT IC50 [9]: 0.0085 µg/mL

B7: M4A10 (antibody, V domains shown)
VH: QVQLVQSGAEVKKPGASVKVSCKASGYTFNGHYLHWVRQAPGQGLEWMGWINPNSGGTDYAQRFQGRVTMTRGTSISTAYMELSRLTSDDTAVYFCARDNFGFWSASSGRHNWLDSWGQGTLVIVSS
VL: NFMLTQPHSVSESPGKTVTISCTRSTGNIASNYVQWYQQRPGSSPTTVIYEDNQRPSAVPDRFSGSIDSSSNSASLTVSGLRTEDEADYYCQSYDSGHHVVFGGGTKLTVL
notes: IgG
- EC50 (read off the curve) [13]: ~0.006 µg/mL
- binding result (N135T G139N Y233N): binds
- EC50 (read off the curve) (T143K): ~0.002 µg/mL
- PRNT IC50 [8]: > 10 µg/mL
- PRNT IC50 [9]: 0.0301 µg/mL

B8: M3C06 (antibody, V domains shown)
VH: QVQLVQSGAEVKKPGSSVKVSCKAYGGTLSNYAISWVRQAPGQGLHWMGRIIPVMNVANYADNFQGRVTITADKSTSTAYMELSSLRSEDAAIYYCATARGLGSLEGGDAFDVWGQGTMLTVSS
VL: DIVMTQSPDSVAVSLGERATISCKSSLSLLYSSNNKNYLVWYQQKPGQPPKLLFYWASTRESGVPDRFSASGSGTDFTLTISSLQAEDVAVYYCQQYYSTPITFGQGTRLEIR
notes: IgG
- EC50 (read off the curve) [13]: ~0.009 µg/mL
- binding result (N135T G139N Y233N): binds
- binding result (T143K): no binding (tested: about 3000 ng/mL)
- PRNT IC50 [8]: > 10 µg/mL
- PRNT IC50 [9]: 0.0617 µg/mL

B9: M1A08 (antibody, V domains shown)
VH: QVQLVQSGAEVKKPGASVKVSCKASGVTLTDYYFHWIRQAPGQALEWMGRINPARGGTHYAEKFEDRVTMTTDTSTNTVYMDLSSLRSDDTAVYYCARSGSTHNIYSGFYAFDHWGQGTLVTVSS
VL: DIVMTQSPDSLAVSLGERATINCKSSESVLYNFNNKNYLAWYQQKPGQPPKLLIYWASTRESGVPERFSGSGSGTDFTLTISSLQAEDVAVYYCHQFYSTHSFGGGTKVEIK
- PRNT IC50 [8]: 2.27 µg/mL
- PRNT IC50 [9]: 0.72 µg/mL

B10: M2B6 (antibody, V domains shown)
VH: QVQLQESGPGLVKPSETLSLTCSVSGASIGGYYWGWIRQPPGKGLEWLGYIYYSGRTVYSPSLRGRLALSLDMSRQQLSLRLRSVAAADTAVYYCASLTITPGWFDSWGPGTLVTVSS
VL: QSVLTQPPSVSGAPGQRVTISCTGSSSNIGAGYDVHWYQQFPGSAPKLLIYGNTKRPSGVPDRFSGSTSGSSASLAITGLQTEDEAEYYCQSYERNLDGALFGGGTKLSVL
- PRNT IC50 [8]: 0.044 µg/mL
- PRNT IC50 [12]: 0.0092 µg/mL
- PRNT IC50 [9]: 0.0237 µg/mL

B11: M1C7s (antibody, V domains shown)
VH: QVQLVQSGPEVRKPGSSVRVSCKASGGTFTRLTITWVRQAPGQGLEWMGRIIPAVDITNYAPKFQGRVTITADKSTGAVYMDLISLTSDDTAIYFCATVLDWSNALDIWGQGTMVTVSS
VL: DIVMTQTPLSLSVTPGQPASISCKSSESLLNSDGKTYLFWYLQKPGQSPQVLIYDLSSRFSGVPERFSGSGSGTDFTLKISRVEPEDVGIYYCMQGLHLPWTFGRGTRLEIKR
- PRNT IC50 [8]: 0.015 µg/mL
- PRNT IC50 [9]: 0.0092 µg/mL

B12: M4B11 (antibody, V domains shown)
VH: QVQLVQSGTEVQTPGASVKVSCKTSGYIFTGYFMHWVRQAPGQGFEWMGWVNPYSGATTYAQKFQGRVTMTRDTSISTVYMELSRLTSDDTAIYYCAKDTSNSGPDLLEHWGQGTLVIVSS
VL: EIVLTQSPATLSLSPGERATLSCRASQSISNFLVWYQRKPGQAPRLLIFDVSKRATGIPTRFSGSGSGTDFTLTISSLEPEDFAVYYCQQRSNWPPGYTFGQGTKLEIK
- PRNT IC50 [8]: 0.652 µg/mL
- PRNT IC50 [9]: 0.238 µg/mL

B13: M1A04 (antibody, V domains shown)
VH: EVQLVESGGGLVRPGGSLRLSCAASGFNVRNYYMSWVRQAPGKGLEWISVIYGGGTTFYAGSVKGRFTISRDDSKSTLFLQMNSLRADDTAVYYCARDPGTVMSTENLQGMDVWGQGTTVTVSS
VL: DIQMTQSPSSLSASVGDRVTITCRASQTIRSYLNWYQQKPGKAPNLLIYAATSLQSGVPSRFSGSGSGTDFTLTISSLQPEDSATYYCQQSFSTLYSFGQGTRLEIK
notes: IgG
- binding result (D414K): binds
- EC50 (read off the curve) [14]: ~0.005 µg/mL
- PRNT IC50 [8]: 0.0872 µg/mL
- PRNT IC50 [9]: 0.128 µg/mL
